# B1: NBVtf: synthetic transcription factor, fusion of NFAT N-terminus, Bob1 octamer-binding domain and VP16 transactivation domain; SEQ ID NO:76 (protein)
# chain: MPSTSFPVPSKFPLGPAAAVFGRGETLGPAPRAGGTMKSAEEEHYGYASSNVSPALPLPTAHSTLPAPCHNLQTSTPGIIPPADHPSGYGAALDGGPAGYFLSSGHTRPDGAPALESPRIEITSCLGLYHNNNQFFHDVEVEDVLPSSKRSPSTATLSLPSLEAYRDPSCLSPASSLSSRSCNSEASSYESNYSYPYASPQTSPWQSPCVSPKTTDPEEGFPRGLGACTLLGSPRHSPSTSPRASVTEESWLGARSSRPASPCNKRKYSLNGRQPPYSPHHSPTPSPHGSPRVSVTDDSWLGNTTQYTSSAIVAAINALTTDSSLDLGDGVPVKSRKTTLEQPPSVALKVEPVGEDLGSPPPPADFAPEDYSSFQHIRKGGFCDQYLAVPQHPYQWAKPKPLSPTSYMSPTLPALDWQLPGSTSGSGKPGSGEGSTKGMLWQKPTAPEQAPAPARPYQGVRVKEPVKELLRRKRGHASSGAAPAPTAVVLPHQPLATYTTVGPSCLDMEGSVSAVTEEAALCAGWLSQPGGGGSGGGGSGGGGSTAPPTDVSLGDELHLDGEDVAMAHADALDDFDLDMLGDGDSPGPGFTPHDSAPYGALDMADFEFEQMFTDALGIDEYGG
# B2: OX40L: Flag-tagged surface receptor overexpressed on minigene-transduced B cells; SEQ ID NO:84 (protein)
# chain: ERVQPLEENVGNAARPRFERNKLLLVASVIQGLGLLLCFTYICLHFSALQVSHRYPRIQSIKVQFTEYKKEKGFILTSQKEDEIMKVQNNSVIINCDGFYLISLKGYFSQEVNISLHYQKDEEPLFQLKKVRSVNSLMVASLTYKDKVYLNVTTDNTSLDDFHVNGGELILIHQNPGEFCVLGSGAGGSGSGAGGSGDYKDDDDKGAGSGDYKDDDDKGAGSDYKDDDDKGGAGSDYKDDDDKGSGDYKDDDDKGAGSGDYKDDDDKGSGAGGSS
# modifications: Flag tag
# B3: P10 promoter: synthetic TCR responsive promoter, SEQ ID NO:60 (nucleic acid)
# DNA: AGAGATGGGCTAACAGGTATGAGCATGGGAAAAGCATGTTTCAAGAATTTGAGATGTATTTCCCAGAAAAGGAACATGATGAAAATGGTCAGAAAAGGCATTCTTAGGGTCCCCAGATGTCTGCCTTTTCCATTGATTTTCTTTCCTGGTTAATTGCGAGGCTTGCCTCAAGGTGGAAAACAGTATCGGTTTCCACTGGATCACTAGGTCACAGGGTTTGCCTTTTTCCAAACCTGCATCTCAATTTTACCTATGATTTGCATTAAATAACTTTGGAAAAATTGAAGTTCTTGAGAAGCCACCGCGCCCGGCCTCCTCTCCTTTTCCAAATTTATACATTTTGATTGGTGGGGAGATTCCATTATAGGGGCTGGAAAACCCCTTTACCATACCATGAATGTAACTGTACTGTTACAAAGTGGAAAATAACAGTTTCCACTTTTCGCAGCTCTTTGAGAGCAGGACTCTATTTTCCAGTCTCTTTATAAGCTTCATTCATAGTGAAGCTAACAGAAGTTTTTCCATGGTTAGATTGTGCACCGGGCTGTTTTTAAATGTAATATGATTTTCCATTTACTTATTTATCTTTGTAGTTTTATGACAAAGAAAATTTTCTGAGTTACTTTTGTATCCCCACCCCCTTAAAGAAAGGAGGAAAAACTGTTTCATACAGAAGGCGTTAATTGCA
# B4: αCD19-HA: secreted scFv derived from monoclonal αCD19 antibody clone B43, six HA epitope tags at C-terminus; SEQ ID NO:39 (protein)
# scFv: EVQLVQSGAEVKKPGSSVKVSCKASGYAFSSYWMNWVRQAPGQGLEWMGQIWPGDSDTNYAQKFQGRVTITADESTSTAYMELSSLRSEDTAVYYCARRETTTVGRYYYAMDYWGQGTTVTVSSGGGGSGGGGSGGGGSDIQLTQSPSFLSASVGDRVTITCKASQSVDYSGDSYLNWYQQKPGKAPKLLIYDASNLVSGVPSRFSGSGSGTEFTLTISSLQPEDFATYYCQQSTENPWTFGGGTKLEIK
# modifications: 6x HA tag
# Columns and labels:
# Format in all cases: cell-based
# Jurkat cells = experiment: Droplet co-culture of B and T cells, CD69 surface expression by flow cytometry; settings: EDTA without added calcium
# Description: One day prior to encapsulation, BOLETH cells were cultured in the presence of cognate or negative control peptides at a final concentration of 1 μM. Cells were collected the next day, centrifuged at 300 g for 5 min, then resuspended in B-cell medium at a final concentration of 1.4×10^7 cells/ml. These were further supplemented with same peptide and with or without EDTA. TCR-expressing Jurkat cells were centrifuged at 300 g and resuspended in B-cell medium at a concentration of 4×10^7 cells/ml. These were then further supplemented with respective concentrations of calcium. BOLETH, Jurkat, and detergent-containing fractions were connected to the microfluidic chip as described. Pressures were applied using an OB1 MK3+ and the droplet emulsion was collected into a 1.5 ml reaction tube containing oil.
# Droplets were incubated at 37° C. in a 5% CO2 humidified incubator. Following overnight incubation, droplet emulsions were disrupted by adding two volumes of Pico-Break 1 (SPHERE FLUIDICS). Tubes were quickly inverted several times and centrifuged for 15 s at 300 rpm to facilitate separation of the cell-containing fraction. […] Tubes were centrifuged for 5 min at 300 g and cell pellets were subsequently resuspended in 100 μl of FACS buffer and were analyzed via flow cytometry. […]
# [1] = tested on: T-cells expressing cognate TCR
# [2] = tested on: Jurkat and SKW3 reporter cells; experiment: Co-culture of TT2-expressing P10-NBV reporter Jurkat and SKW3 cells with cognate minigene-transduced B cells overexpressing Flag-tagged surface receptors; settings: overexpression on minigene-transduced B cells
# Source text: For the purpose of testing the different Flag-tagged surface receptors, InFusion-based cloning (TAKARA) was used to replace the mTagBFP2 reporter with the human codon optimized coding sequence of each candidate surface receptor, N-terminally or C-terminally tagged with a flexible 6× Flag to face the extracellular space. Specifically, the coding region of CD40, CD58, CD80, CD83, CD86, OX40L and 4-1BBL were cloned and tested.
# Co-culture experiments were done using round bottom 96 well plates. P10-NBV Jurkat and SKW3 reporter cells and B cells are seeded 1 to 1 ratio into each well. Next day the cells are spun down and stained for Flow cytometry.
# TCR signaling = experiment: Co-culture of Jurkat reporter cells carrying synthetic promoters with peptide-loaded B cells (GFP / HA reporter)
# Description: Sleeping beauty transposon reporter constructs were transfected together with transposases into T cells, 5 to 1 ratio, using the Neon transfection system following the manufacturer's protocol. The voltages used for Jurkat cells were 1350V/[…]/3 pulse, and for SKW-3 cells 1500V, […] and 1 pulse were used as settings. 48-72 hours after transfection, the cells were selected using […] Blasticidin for Jurkat and […] Blasticidin for SKW-3 cells.
# Co-culture experiments were performed using round-bottom 96-well plates. P10-NBV Jurkat and SKW-3 reporter cells and B cells were seeded at a 1:1 ratio into each well. For peptide co-culture experiments, either cognate peptide or mismatched peptide is added to each well and incubated for 16 hours. For minigene-based co-culture experiments, minigene-transduced B cells harboring either the cognate of mismatch minigenes were used. Next day the cells are spun down and stained for Flow cytometry.
# BOLETH cells = experiment: Labeling of BOLETH cells with scFv-containing supernatant of transfected HEK293 cells, flow cytometry; settings: for signal strength in tandem (T2A) scFv constructs relative to single scFv constructs: αCD19-HA and αCD20-V5 in one expression construct
# Source text: Current generation T cell reporter systems consists of a cis-regulatory element comprising multiple copies of a synthetic promoter sequence (‘NBV’). […] The scFv is derived from a monoclonal αCD19-antibody (clone B43) binding to the B cell-specific transmembrane protein CD19, which is commonly used in monoclonal antibody-mediated immunotherapy (Uckun et al., 1988, Blood, 71(1):13-29). It is tagged with six HA epitope tags at its C-terminus, which facilitates its detection by flow cytometry. To optimize the current reporter and B cell labeling strategy, the potential of additional scFvs was tested. In particular, an αCD20-scFv derived from a human monoclonal antibody was evaluated that recognizes an epitope encompassing the membrane-proximal small-loop on the CD20 molecule, known as ofatumumab (clone 2F2) (Teeling et al., 2004, Blood, 104(6):1793-800). In order to test its functionality, scFv constructs were assembled in both the VH-VL and VL-VH configuration. The heavy and light chain domains were separated by a flexible polypeptide linker (G4S)3. To confirm that ofatumumab, as an scFv tagged with four copies of the V5 label, a small epitope-tag found on P and V proteins of the paramyxovirus, can efficiently label BOLETH cells and be detected by flow cytometry, the coding region was inserted into a CMV expression plasmid. HEK293 cells were transfected with the construct using TurboFect. As a negative control, HEK293 cells were transfected with a sfGFP-containing construct. Medium was exchanged 24 hours post-transfection. The scFv-containing supernatant (SN) was collected 72 hours post-transfection and was used to label BOLETH cells. Using fluorescent dye-conjugated antibodies recognizing the tagged scFvs, the amount of B cell bound scFv was measured by flow cytometry (FIG. 8A).
# For optimizing scFv reporter constructs, constructs containing combinations of B43 and 2F2 tagged with either HA or V5 were cloned in pTwist CMV WPRE Neo BetaGlobin. For testing, HEK cells were transiently transfected with the plasmids using TurboFect (Fermentas). […]
molecule,measurement,setting,value
O=C(O)CN(CCN(CC(=O)O)CC(=O)O)CC(=O)O [EDTA],T-cell activation in presence of EDTA (chelation of calcium from the media),Jurkat cells,T-cell activation is inhibited
BT1 construct: minigene expression construct with first transmembrane domain of Bcap31 fused to the minigene N-terminus; SEQ ID NO:116 (DNA AVATFLYAEVFVVLLLCIPFI),T-cell activation with 400 AA minigene,[1],strong T-cell activation even with a 400 AA minigene
same,stability of T-cell activation over time,[1],stable T-cell activation over time
same,strength of minigene-induced T-cell activation,[1],"strong T-cell activation, similar to the positive control"
same,presentation of the TetX_400_1 minigene relative to 2B construct,[1]; TT2 TCR,did not improve the presentation
4-1BBL: Flag-tagged surface receptor overexpressed on minigene-transduced B cells; SEQ ID NO:85,minigene-based T cell activation,[2],potentiates minigene-based T cell activation
B1,reporter gene expression,"TCR signaling; Jurkat-P10NBV-TT2 cells, BOLETH cells loaded with 0.01 μM cognate peptide",further improves reporter gene expression
same,reporter gene expression,"TCR signaling; Jurkat-P10NBV-TT11 cells, BOLETH cells loaded with 0.1 μM cognate peptide",further improves reporter gene expression
B2,minigene-based T cell activation,[2],potentiates minigene-based T cell activation
B3,GFP and HA reporter gene expression in sleeping beauty constructs,TCR signaling; sleeping beauty constructs,high GFP and HA reporter gene expression
B4,"HA MFI, HA-tagged αCD19 scFv compared to HA-tagged αCD20 scFv",BOLETH cells; HEK supernatant staining of B cells,higher MFIs
same,signal strength in tandem (T2A) scFv constructs relative to single scFv constructs,BOLETH cells,remains unchanged
same,signal strength in tandem (T2A) scFv constructs relative to single scFv constructs,BOLETH cells; listed as αCD19 scFv,retains similar binding capacity
